Measurements taken from article PMC8154130 (ACS Omega, 2021).

Target: the molecule itself
Assay: native gel or EMSA

B1: C-terminal truncated DDX3X (domain or fragment, human, UniProt O00571 1-582, looked up)
chain: MSHVAVENALGLDQQFAGLDLNSSDNQSGGSTASKGRYIPPHLRNREATKGFYDKDSSGWSSSKDKDAYSSFGSRSDSRGKSSFFSDRGSGSRGRFDDRGRSDYDGIGSRGDRSGFGKFERGGNSRWCDKSDEDDWSKPLPPSERLEQELFSGGNTGINFEKYDDIPVEATGNNCPPHIESFSDVEMGEIIMGNIELTRYTRPTPVQKHAIPIIKEKRDLMACAQTGSGKTAAFLLPILSQIYSDGPGEALRAMKENGRYGRRKQYPISLVLAPTRELAVQIYEEARKFSYRSRVRPCVVYGGADIGQQIRDLERGCHLLVATPGRLVDMMERGKIGLDFCKYLVLDEADRMLDMGFEPQIRRIVEQDTMPPKGVRHTMMFSATFPKEIQMLARDFLDEYIFLAVGRVGSTSENITQKVVWVEESDKRSFLLDLLNATGKDSLTLVFVETKKGADSLEDFLYHEGYACTSIHGDRSQRDREEALHQFRSGKSPILVATAVAARGLDISNVKHVINFDLPSDIEEYVHRIGRTGRVGNLGLATSFFNERNINITKDLLDLLVEAKQEVPSWLENMAYEHHYKG
Does B1 bind?
Result: binds
